Assay results from paper doi:10.1101/829150.

Molecular target: Chicken gizzard actin (chicken) (UniProt P63270)
Assay: nanopore sensing

filamentous fraction, initial: 17% | filamentous fraction, maximum: 75%
Substance: Chicken gizzard actin (from UniProt P63270 1-376) (natural protein)
